Data on four substances can be found in US20170072032A1.

The target in assay [1] is recombinant mouse FcRn, biotinylated, immobilized on sensor chip (mouse) (UniProt Q61559). Kind of assay: SPR (Biacore 2000), biotinylated mouse FcRn immobilized, analyte 0.78-200 nM, pH 5.4, 25 C, Langmuir fit with drifting baseline.
The target of assay [2] is recombinant human FcRn, biotinylated, immobilized on sensor chip (human) (UniProt P55899). Nature of the assay: SPR (Biacore 2000), biotinylated human FcRn immobilized, analyte 0.78-200 nM, pH 5.4, 25 C, Langmuir fit with drifting baseline.
For assay [3], the target named is recombinant mouse FcRn, biotinylated, immobilized on sensor chip (mouse) (UniProt Q61559). Nature of the assay: SPR (Biacore), immobilized biotinylated mouse FcRn, analyte 0.78-100 nM, pH 5.4; Chi2 2.5.
The target is the same in assay [4]. Nature of the assay: SPR (Biacore), immobilized biotinylated mouse FcRn, analyte 0.78-100 nM, pH 6.4; Chi2 3.9.
Assay [5] has the same target. Nature of the assay: SPR (Biacore), immobilized biotinylated mouse FcRn, analyte 0.78-100 nM, pH 6.4; Chi2 0.3.
Assay [6] shares this target. Kind of assay: SPR (Biacore), immobilized biotinylated mouse FcRn, analyte 0.78-100 nM, pH 5.4; Chi2 10.1.
For assay [7], the target named is neonatal Fc receptor (FcRn), endogenous mouse receptor in placenta / syncytiotrophoblast cells (mouse) (UniProt Q61559). Nature of the assay: cell-based or functional assay.

UniProt P55899, sequence (P55899 24-297 limits assumed, form in doubt, chain 1 of 2): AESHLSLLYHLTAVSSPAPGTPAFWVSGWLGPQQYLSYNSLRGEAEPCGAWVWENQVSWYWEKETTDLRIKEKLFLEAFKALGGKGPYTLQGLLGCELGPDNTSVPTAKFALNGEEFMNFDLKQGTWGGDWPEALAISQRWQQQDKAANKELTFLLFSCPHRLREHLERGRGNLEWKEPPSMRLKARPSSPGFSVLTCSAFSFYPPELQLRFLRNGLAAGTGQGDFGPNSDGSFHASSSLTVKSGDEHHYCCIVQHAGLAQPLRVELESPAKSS
UniProt P55899, sequence (chain, as listed by the source limits assumed, form in doubt, chain 2 of 2): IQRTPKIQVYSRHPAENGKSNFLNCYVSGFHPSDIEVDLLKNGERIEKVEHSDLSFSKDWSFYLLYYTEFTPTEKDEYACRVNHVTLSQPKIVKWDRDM

Turning to “PPI2-Fc fusion protein (mouse preproinsulin 2 fused to the CH2-CH3 Fc domain of human IgG1) (from UniProt P01326 25-110)”, in assay [1], the Kd was determined as 5.4 nM, the koff amounted to 0.00159 s⁻¹ and the kon came to 292000 M⁻¹ s⁻¹. For the same substance, in assay [2], the equilibrium dissociation constant (Kd) was 15.3 nM, the koff came out at 0.00318 s⁻¹ and the kon was found to be 208000 M⁻¹ s⁻¹.
“C2Fc (C2 domain of FVIII fused to mouse Fc gamma 1) (from UniProt P00451 2192-2351) (Fc fusion)”: in assay [3], the Kd turned out to be 3.7 nM, the koff was determined as 0.0011 s⁻¹ and the kon worked out at 292000 M⁻¹ s⁻¹. Besides, in assay [4], the dissociation constant (Kd) was found to be 53 nM, the koff came out at 0.00347 s⁻¹ and the kon came out at 65000 M⁻¹ s⁻¹.
Turning to “A2Fc (A2 domain of FVIII fused to mouse Fc gamma 1) (from UniProt P00451 392-759) (Fc fusion)”, in assay [5], the equilibrium dissociation constant (Kd) was 52.9 nM, the koff came to 0.0016 s⁻¹ and the kon stood at 30000 M⁻¹ s⁻¹. Further, in assay [6], the Kd came out at 8.53 nM, the koff came out at 0.00218 s⁻¹ and the kon came out at 256000 M⁻¹ s⁻¹.
As to “anti-CD20 rituximab monoclonal antibody (Roche), used as human IgG1 control”, the diabetes-free offspring after IgG pre-treatment of pregnant mice 24 h before PPI-Fc (% diabetes-free mice) in assay [7] worked out at 49. Also, in assay [1], the Kd came out at 1.5 nM, the koff was 0.00248 s⁻¹ and the kon turned out to be 1.63e+06 M⁻¹ s⁻¹. Moreover, in assay [2], the Kd turned out to be 6.4 nM, the koff was 0.00492 s⁻¹ and the on-rate constant (kon) is 765000 M⁻¹ s⁻¹.
